From patent US20180346564A1
Numbering of substitutions follows the chain as printed. Names and notes keep the numbering of the source.

T1: phosphorylated peptide (PRHLSNVS(pS)TGSIDMVD) of Example 10 (human)
T1 sequence (peptide, phosphoserine (pS) at peptide position 9): PRHLSNVSSTGSIDMVD

B1: Humanized × [MAPT_H] mAb (Ta1505-VL46_G34T/VH11) IgG4 S228P/Kappa (CX) (antibody, V domains shown)
VH: EVQLVESGGGLVQPGGSLRLSCAASGFTFSSFALNWVRQAPGKGLEWVGHIRSKTNNYATFYAASVKDRFTVSRDDSQNTAYLQMNSLKTEDTATYYCVRRGPRDSWFGYWGQGTLVTVSS
VL: DIVMTQSPLSLPVTLGEPASISCRSSQSIVHSNTNTYLEWYLQKPGQSPQLLIYTVSNRFSGVPDRFSGSGSGTDFTLKISRVEAEDLGVYYCFQGSHLPLTFGGGTKVEIKR
B2: Humanized × [MAPT_H] mAb (Ta1505-VL46_N33S/VH11) IgG4 S228P/Kappa (CX) (antibody, V domains shown)
VH: B1 VH
VL: B1 VL with N33S, T34G
B3: Humanized × [MAPT_H] mAb (Ta1505-VL46_N33T/VH11) IgG4 S228P/Kappa (CX) (antibody, V domains shown)
VH: B1 VH
VL: B1 VL with N33T, T34G
B4: Humanized × [MAPT_H] mAb (Ta1505-VL46_N33Q/VH11) IgG4 S228P/Kappa (CX) (antibody, V domains shown)
VH: B1 VH
VL: B1 VL with N33Q, T34G
B5: Humanized × [MAPT_H] mAb (Ta1505-VL46 S28N/VH11) IgG4 S228P/Kappa (CX) (antibody, V domains shown)
VH: B1 VH
VL: B1 VL with S28N, T34G
B6: Humanized × [MAPT_H] mAb (Ta1505-VL46_N33Q_G34A/VH11) IgG4 S228P/Kappa (CX) (antibody, V domains shown)
VH: B1 VH
VL: B1 VL with N33Q, T34A

Molecular target: T1, phosphorylated peptide (PRHLSNVS(pS)TGSIDMVD) of Example 10 (human)
Assay: ELISA, pS413 peptide coated at 1 ug/ml, antibody titrated, goat anti-human-HRP, ABTS, OD405 (Example 10)

Binder | EC50 (read off the curve) [µg/mL]
B1 | 0.01
B2 | 0.02
B3 | 0.01
B4 | 0.02
B5 | 0.006
B6 | 0.02
